Target: GST-BS69_(50-401) FW point mutant (F293A, W294A) (human) (UniProt Q15326)
Assay: MST

GST-BS69_(50-401) FW point mutant (F293A, W294A) (human), sequence (Q15326 50-401 F293A/W294A): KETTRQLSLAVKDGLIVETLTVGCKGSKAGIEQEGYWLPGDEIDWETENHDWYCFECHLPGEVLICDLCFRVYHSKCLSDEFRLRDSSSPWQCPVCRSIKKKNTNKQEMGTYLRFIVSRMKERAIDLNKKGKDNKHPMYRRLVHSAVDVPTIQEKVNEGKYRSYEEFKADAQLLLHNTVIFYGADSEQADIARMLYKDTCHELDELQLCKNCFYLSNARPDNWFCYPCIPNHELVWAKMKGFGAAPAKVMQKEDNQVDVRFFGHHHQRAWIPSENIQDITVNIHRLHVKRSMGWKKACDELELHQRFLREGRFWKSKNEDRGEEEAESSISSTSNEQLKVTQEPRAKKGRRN

Kd: 277 µM
Substance: H3.3K36me3 peptide

Reference: paper PMC4363072
